This passage reports Kd results from publication PMC6322289, “The formation and accumulation of protein-networks by physical interactions in the rapid occlusion of laticifer cells in rubber tree undergoing successive mechanical wounding” (BMC Plant Biology, 2019).

In this test the target is T1, β-1,3-glucanase (Hevea brasiliensis (endogenous in latex …, UniProt P52407 37-356)).
T1 construct: β-1,3-glucanase of the lutoids (B-serum) of Hevea brasiliensis latex; two bands of about 35.5 and 41 kDa, both recognised by anti-glucanase and identified as β-1,3-glucanase by MALDI TOF MS; The preparation holds two forms (35.5 and 41 kDa); source: purified from B-serum of rubber tree latex (0-65% (NH4)2SO4, CM Sepharose Fast Flow); also unpurified in B-serum
The test can be described thus: SPR; Biacore 3000, 25 °C; β-1,3-glucanase amine-coupled to a CM5 chip (5000 RU); analytes flowed in HBS-EP pH 7.4 at 30 μL/min; multi-cycle kinetics, 1:1 Langmuir fit; apparent constants. The following applies: both partners purified. (Surface plasmon resonance follows binding to a sensor surface in real time, without labels.)

T1 sequence (P52407 37-356): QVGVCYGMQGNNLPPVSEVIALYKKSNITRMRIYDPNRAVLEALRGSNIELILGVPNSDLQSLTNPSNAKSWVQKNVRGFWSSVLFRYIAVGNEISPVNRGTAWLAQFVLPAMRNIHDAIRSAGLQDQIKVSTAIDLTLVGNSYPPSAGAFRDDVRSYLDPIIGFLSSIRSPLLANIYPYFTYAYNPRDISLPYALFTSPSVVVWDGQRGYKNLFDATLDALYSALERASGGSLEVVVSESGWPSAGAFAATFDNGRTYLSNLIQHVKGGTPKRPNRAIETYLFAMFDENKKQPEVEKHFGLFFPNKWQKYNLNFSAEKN

B1: hevein (natural protein, UniProt P02877 18-60, looked up)
chain: EQCGRQAGGKLCPNNLCCSQWGWCGSTDEYCSPDHNCQSNCKD
notes: hevein, the N-terminal part split from pro-hevein, Hevea brasiliensis; runs at 10 kDa in Tricine-SDS-PAGE; source: purified from B-serum of rubber tree latex (85-95% (NH4)2SO4, Sephacryl S-200HR); also unpurified in B-serum
For B1, the Kd was 87.9 µM.

B2: pro-hevein (natural protein, UniProt P02877 18-204, looked up)
chain: EQCGRQAGGKLCPNNLCCSQWGWCGSTDEYCSPDHNCQSNCKDSGEGVGGGSASNVLATYHLYNSQDHGWDLNAASAYCSTWDANKPYSWRSKYGWTAFCGPVGAHGQSSCGKCLSVTNTGTGAKTTVRIVDQCSNGGLDLDVNVFRQLDTDGKGYERGHITVNYQFVDCGDSFNPLFSVMKSSVIN
notes: source: purified from B-serum of rubber tree latex (Sephacryl S-200HR); also unpurified in B-serum
Regarding B2, the Kd came to 231 µM.
